Assay results as given in US20190016816A1 (APTEVO RESEARCH AND DEVELOPMENT, published 2019).

T1: human 5T4 on cells (human, UniProt Q13641 32-420)
T1 construct: also called TPBG; hu5T4
T1 sequence: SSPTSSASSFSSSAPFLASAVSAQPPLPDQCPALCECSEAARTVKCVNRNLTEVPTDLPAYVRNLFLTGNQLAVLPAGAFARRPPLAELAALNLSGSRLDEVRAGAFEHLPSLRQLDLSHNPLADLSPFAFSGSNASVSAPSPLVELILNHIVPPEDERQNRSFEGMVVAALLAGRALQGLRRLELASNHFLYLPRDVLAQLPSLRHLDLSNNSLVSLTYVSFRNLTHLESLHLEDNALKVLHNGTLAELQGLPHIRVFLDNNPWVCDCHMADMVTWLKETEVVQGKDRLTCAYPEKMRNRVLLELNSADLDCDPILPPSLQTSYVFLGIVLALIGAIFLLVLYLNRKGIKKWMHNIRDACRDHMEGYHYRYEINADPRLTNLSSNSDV

B1: ALG.APV-210 (bispecific antibody)
chain: EVQLLESGGGLVQPGGSLRLSCAASGFTFSHGSMYWVRQAPGKGLEWVSSISSGSGSTYYADSVKGRFTISHDNSKNTLYLQMNSLRAEDTAVYYCARSSYYGSYYSIDYWGQGTLVTVSSGGGGSGGGGSGGGGSGGGGSDIQMTQSPSSLSASVGDRVTITCRASQSISSYLNWYQQKPGKAPKLLIYAASSLQSGVPSRFSGSGSGTDFTLTISSLQPEDFATYYCQQYYDNLPTFGQGTKLEIKEPKSSDKTHTCPPCPAPEAAGAPSVFLFPPKPKDTLMISRTPEVTCVVVDVSHEDPEVKFNWYVDGVEVHNAKTKPREEQYNSTYRVVSVLTVLHQDWLNGKEYKCAVSNKALPAPIEKTISKAKGQPREPQVYTLPPSRDELTKNQVSLTCLVKGFYPSDIAVEWESNGQPENNYKTTPPVLDSDGSFFLYSKLTVDKSRWQQGNVFSCSVMHEALHNHYTQKSLSLSPGSGGGGSGGGGSGGGGSPSEVQLLESGGGLVQPGGSLRLSCAASGFTFSSYAMSWVRQAPGKCLEWVSAISGSGGSTYYADSVKGRFTISRDNSKNTLYLQMNSLRAEDTAVYYCARYYGGYYSAWMDYWGQGTLVTVSSGGGGSGGGGSGGGGSGGGGSDIQMTQSPSSLSASVGDRVTITCRASQSISSFLNWYQQKPGKAPKLLIYAASSLQSGVPSRFSGSGSGTDFTLTISSLQPEDSATYYCQQTYGYLHTFGCGTKLEIKR
notes: Optimized ADAPTIR scFv-Fc-scFv homodimer with stabilizing disulfide in the 1210 scFv; also called 5T4-CD137 bispecific antibody
B2: biotinylated ALG.APV-210 (bispecific antibody)
chain: B1 chain
notes: also called ALG.APV-210 (biotinylated for FACS detection)

Assays:
FcγRIIIb (CD16b) = biological target: T2, FcγRIIIb (CD16b) (UniProt O75015 17-200, limits assumed); assay: flow cytometry, CHO cells stably expressing CD16b, fluorescent anti-human IgG secondary, MFI (mean)
T2 construct: whole, on cells
T2 sequence (O75015 17-200 limits assumed): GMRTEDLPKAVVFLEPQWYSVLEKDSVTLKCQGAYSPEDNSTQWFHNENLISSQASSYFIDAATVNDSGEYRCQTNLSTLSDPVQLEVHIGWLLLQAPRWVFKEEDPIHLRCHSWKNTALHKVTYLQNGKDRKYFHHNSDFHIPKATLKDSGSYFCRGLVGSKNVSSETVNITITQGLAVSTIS
Description: ALG.APV-210 contains mutations introduced to prevent interaction with Fcγ receptors (FcγR) that could lead to FcγR-mediated T-cell activation or ADCC, ADCP, CDC etc. Binding of ALG.APV-210 was therefore tested on CHO cell transfectants stably expressing the following FcγR: FcγRI (CD64), FcγRIIa (CD32a His131), FcγRIIb (CD32b), FcγRIIIa (CD16a Val158 and CD16a Phe158), and FcγRIIIb (CD16b). Untransfected CHO cells were used as negative control. A control human IgG1 molecule was used as a positive control. Different concentrations of ALG.APV-210 or control IgG1 were incubated with the FcγR-expressing cell lines, washed, and labeled with a secondary anti-human IgG reagent. Binding of ALG.APV-210 and the control IgG1 was detected by flow cytometry.

human 5T4 on cells = biological target: T1, human 5T4 on cells; assay: flow cytometry, CHO-hu5T4 cells, streptavidin-PE, normalized MFI of 2 pooled experiments
Procedure: Prior to the FACS staining, all cell lines were characterized for their 5T4 expression levels using a receptor density kit (Quantum Simply Cellular, anti-human IgG, Bangs Laboratories, Inc). Adherent cell lines were cultured according to their supplier's instructions and were harvested from their cell culture flasks using Trypsin/EDTA, counted in R10 medium in a Burker chamber, and diluted in FACS buffer (PBS+0.5% BSA, 0.05% NaN₃) to a concentration of 4×10⁶ cells/mL. 50 μL (0.20×10⁶) of cell solution was added to a 96-well FACS staining plate (Falcon #351190). Cells were incubated for 20 min in 4° C. with 50 μL of the biotinylated ALG.APV-210 (2× final concentration). The antibodies were added in a serial dilution starting at 20 μg/mL titrating down in a 12 step ½ dilution down to 0.010 μg/mL. Following 2× washing with FACS buffer, cells were incubated for 30 min in 4° C. with 100 μL of a secondary antibody (streptavidin-PE, BD #554061, diluted 1/500). […] Cells were analysed for ALG.APV-210 binding using flow cytometry (FACSVerse) by gating on single cells. MFI values (secondary antibody only subtracted) from 1 out of 2 independent experiments, as well as normalized data and EC₅₀-values of pooled data from 2 experiments were determined and plotted using GraphPad Prism 7, non-linear regression log (agonist) vs. normalized response—variable slope.

human CD137 on cells = biological target: T3, human CD137 on cells (human, UniProt Q07011 24-255); assay: flow cytometry, CD8 T cells gated from CD3-stimulated human PBMC, biotinylated antibody + streptavidin-APC, exp 2, n=3 donors
T3 construct: also called 4-1BB; TNFRSF9 (CHO-K1/human CD137 cells)
T3 sequence (Q07011 24-255 limits assumed): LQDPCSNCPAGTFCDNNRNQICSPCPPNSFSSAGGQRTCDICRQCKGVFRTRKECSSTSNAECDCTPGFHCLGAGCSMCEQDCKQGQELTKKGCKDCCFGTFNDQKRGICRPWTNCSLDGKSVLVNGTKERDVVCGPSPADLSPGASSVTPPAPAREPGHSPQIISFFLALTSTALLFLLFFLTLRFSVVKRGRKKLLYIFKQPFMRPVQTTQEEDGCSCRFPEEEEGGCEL
Procedure: (§1) Following 48 h of incubation with or without CD3, human and cynomolgus PBMC were harvested, pooled, recounted and diluted in FACS buffer (PBS+0.5% BSA, 0.05% NaN₃) to a concentration of 5×10⁶ cells/mL. 50 μL (0.25×10⁶ cells) of cell solution was added to a 96-well FACS staining plate (Falcon #351190). Following 10 min of Fc-blocking in RT using Beriglobin (hIgG, 200 μg/mL), cells were washed in FACS buffer and then incubated for 1 h in 4° C. with 100 μL of the biotinylated ALG.APV-210 or negative control. […] Cells were analysed for ALG.APV-210 binding using flow cytometry by gating on viable, single cells expressing CD3 and CD8. MFI values (FMO subtracted) from 2 independent experiments as well as normalized pooled data from 2 experiments and EC₅₀-values were determined and plotted using GraphPad Prism 7, non-linear regression log (agonist) vs. normalized response—variable slope, n=6 donors/group.
In ELISA tests, the binding of biotinylated ALG.APV-210 to CD137 was similar to that of the non-biotinylated ALG.APV-210 (0.6 nM vs. 0.7 nM). The binding (EC₅₀) of the biotinylated ALG.APV-210 to its immunomodulatory target CD137 when expressed on activated primary human and cynomolgus CD8 T cells from CD3 stimulated PBMC was assessed and compared between the two species as well as to unstimulated cells. […]

[1] = biological target: T4, cynomolgus CD137 on cells (cynomolgus macaque, UniProt A9YYE7 24-254); assay: flow cytometry, normalized percentage of CD8 T cells (gated from CD3-stimulated cynomolgus PBMC) bound by the biotinylated antibody, pooled data of 2 exp, n=6 donors
T4 construct: whole, on cells; also called CHO-K1/cynomolgus CD137 cell line; cynomolgus monkey CD137 on CD3-stimulated primary CD8 T cells
T4 sequence (A9YYE7 entry or part of it): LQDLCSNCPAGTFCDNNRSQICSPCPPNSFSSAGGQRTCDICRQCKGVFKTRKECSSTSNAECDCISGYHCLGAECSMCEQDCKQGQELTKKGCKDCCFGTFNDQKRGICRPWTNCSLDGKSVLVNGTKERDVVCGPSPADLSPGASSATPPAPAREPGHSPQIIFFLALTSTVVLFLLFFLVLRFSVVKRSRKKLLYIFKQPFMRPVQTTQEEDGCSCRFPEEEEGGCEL
Procedure: as §1, with “control. The antibodies were added in a serial dilution starting either at 5 μg/mL titrating down in a 12 step ⅓ dilution down to […] (exp 1) or 1 μg/mL titrating down in a 12 step ½ dilution down to 0.0005 μg/mL (exp 2).” for “control.”

Row | Binder | binding result (FcγRIIIb (CD16b)) | EC50 (human 5T4 on cells) | EC50 (read off the curve) (human CD137 on cells) | EC50 [1]
1 | B1 | no binding (tested: 1000 nM) | – | – | –
2 | B2 | – | 23 nM | ~0.2 nM | 0.019 nM
